The values below come from patent US11267868 (dated 2022).

Like-named read-outs stand apart in the source and are kept apart here.

Common to all, as to assay: SPR
Test [1] has as its target T1, FcgRIIIaV (human, UniProt P08637).
In test [2] the target is T2, FcgRIIaR (human, UniProt P12318).
T2 chain: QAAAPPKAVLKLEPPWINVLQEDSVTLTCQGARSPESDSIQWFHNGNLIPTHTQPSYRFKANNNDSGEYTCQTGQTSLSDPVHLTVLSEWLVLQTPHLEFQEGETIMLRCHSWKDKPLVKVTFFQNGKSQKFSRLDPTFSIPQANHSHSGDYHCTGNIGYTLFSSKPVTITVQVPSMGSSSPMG

The target of test [3] is T3, FcgRIIaH (human, UniProt P12318).
T3 chain: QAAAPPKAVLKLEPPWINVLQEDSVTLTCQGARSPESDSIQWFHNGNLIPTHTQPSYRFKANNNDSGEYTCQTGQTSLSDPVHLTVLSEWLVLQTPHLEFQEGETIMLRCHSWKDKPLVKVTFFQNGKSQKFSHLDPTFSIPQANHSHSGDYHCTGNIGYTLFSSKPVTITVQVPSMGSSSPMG

The target of test [4] is T3, FcgRIIaH.
Test [5] addresses T1, FcgRIIIaV. The source holds these as a separate data set.
The target of test [6] is T2, FcgRIIaR.
In test [7] the target is T4, FcgRIa (human, UniProt P12314).
T4 chain: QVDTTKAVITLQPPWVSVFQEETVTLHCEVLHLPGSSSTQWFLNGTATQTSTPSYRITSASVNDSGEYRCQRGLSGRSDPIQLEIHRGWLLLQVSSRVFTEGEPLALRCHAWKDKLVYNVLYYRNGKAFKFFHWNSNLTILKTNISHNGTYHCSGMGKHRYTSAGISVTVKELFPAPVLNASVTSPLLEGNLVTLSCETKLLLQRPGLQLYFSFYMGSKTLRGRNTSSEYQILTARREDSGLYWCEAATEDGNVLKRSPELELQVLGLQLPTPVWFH

Test [8] concerns the target T5, FcgRIIb (human, UniProt P31994).
T5 chain: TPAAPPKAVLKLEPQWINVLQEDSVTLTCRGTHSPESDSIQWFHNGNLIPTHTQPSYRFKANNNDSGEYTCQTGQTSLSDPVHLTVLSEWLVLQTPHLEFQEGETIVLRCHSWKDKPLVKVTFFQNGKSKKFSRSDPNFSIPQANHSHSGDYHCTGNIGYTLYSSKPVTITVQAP

Test [9] addresses T5, FcgRIIb.
Test [10] addresses T4, FcgRIa.

T1 sequence (P08637 17-208 F176V): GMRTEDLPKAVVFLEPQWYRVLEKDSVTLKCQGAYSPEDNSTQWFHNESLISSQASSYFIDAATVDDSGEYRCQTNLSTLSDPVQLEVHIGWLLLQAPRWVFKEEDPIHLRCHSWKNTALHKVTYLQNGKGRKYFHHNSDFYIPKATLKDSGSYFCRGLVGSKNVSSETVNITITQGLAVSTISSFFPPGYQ

B1: IL6R-P587/IL6R-L (antibody)
chain 1: QVQLQESGPGLVKPSETLSLTCAVSGHSISHDHAWSWVRQPPGEGLEWIGFISYSGITNYNPSLQGRVTISRDNSKNTLYLQMNSLRAEDTAVYYCARSLARTTAMDYWGEGTLVTVSSASTKGPSVFPLAPSSKSTSGGTAALGCLVKDYFPEPVTVSWNSGALTSGVHTFPAVLQSSGLYSLSSVVTVPSSSLGTQTYICNVNHKPSNTKVDKKVEPKSCDKTHTCPPCPAPDLLGGDSVFLFPPKPKDTLMISRTPEVTCVVIDVAEEDGEVKFNWYVDGVEVHNAKTKPREEQYNSTYRVVSVLTVLHQDWLNGKEYKCKVSNKALPAPIEKTISKAKGQPREPQVYTLPPSRDELTKNQVSLTCLVKGFYPSDIAVEWESNGQPENNYKTTPPVLDSDGSFFLYSKLTVDKSRWQQGNVFSCSVMHEALHNHYTQKSLSLSP
chain 2: not shown
With B1, the equilibrium dissociation constant (Kd) with FcgRIIIaV [1] was 28000 nM; with FcgRIIaR [2], 710 nM; with FcgRIIaH [3], 12000 nM; with FcgRIIaH [4] it was 14000 nM; with FcgRIIIaV [5] it was 32000 nM; in the test with FcgRIIaR [6] it was 1200 nM. The Kd with FcgRIa [7] worked out at 0.71 nM; with FcgRIIb [8], 28 nM; with FcgRIIb [9] it was 15 nM; in the test with FcgRIa [10] it was 0.21 nM.

Usually Kd stands for the free concentration of one partner at which half of the binding sites on the other are occupied at equilibrium, for simple one-to-one binding.
